Assay results published in US20140303084A1 (Biogen, published 2014).
Bridge positions count the residues as written; N and C are the ends. Square brackets hold non-standard residues; d marks the D form. Primed or numbered codes have the meaning given here. Ends that are not written are not given here. NMeW = CN[C@@H](Cc1c[nH]c2ccccc12)C(=O)O; NMeF = CN[C@@H](Cc1ccccc1)C(=O)O; NMeL = CN[C@@H](CC(C)C)C(=O)O; NMeA = CN[C@@H](C)C(=O)O; PEG4′ = PEG4 spacer; Sar = CNCC(=O)O

These binders were tested against human Factor IXa (human, UniProt P00740 47-191; P00740 227-461) (assay: cell-based or functional assay).

Row | Binder | EC50 [µM], FXa generation assay | EC50 [µM], FXa generation assay with hFIXa
1 | RRAPGKLTCLASYCWL[NMeF]WTGIA (not fully specified (bridges); printed as RRAPGKLTCLASYCWL-MePhe-WTGIA; cysteine pairing not given here) [RRAPGKLTCLASYCWL-MePhe-WTGIA] | > 1 µM | –
2 | RRAPGKLTCLASYCWLFW[dT]GIA (not fully specified (C-terminus, bridges); printed as RRAPGKLTCLASYCWLFWtGIA; cysteine pairing not given here) [RRAPGKLTCLASYCWLFWtGIA] | < 0.5 µM | –
3 | CRRAPGKLQCLASYCWLFWTGIAGGSGGC | > 1 µM | –
4 | RRAPGKLTCL[dA]SYCWLFWTGIA (not fully specified (bridges); cysteine pairing not given here) [RRAPGKLTCLaSYCWLFWTGIA] | > 1 µM | –
5 | CRRAPGKLQCLASYCWLFWTGIAC | > 1 µM | –
6 | RRAPGKL[dT]CLASYCWLFWTGIA (not fully specified (C-terminus, bridges); printed as RRAPGKLtCLASYCWLFWTGIA; cysteine pairing not given here) [RRAPGKLtCLASYCWLFWTGIA] | > 1 µM | –
7 | RRAPGKLTCLASYCWLFWTG[MeIle]A (not fully specified (C-terminus, bridges); printed as RRAPGKLTCLASYCWLFWTG-MeIle-A; cysteine pairing not given here) [RRAPGKLTCLASYCWLFWTG-MeIle-A] | > 4 µM | –
8 | RR[dA]PGKLTCLASYCWLFWTGIA (not fully specified (bridges); printed as RRaPGKLTCLASYCWLFWTGIA; cysteine pairing not given here) [RRaPGKLTCLASYCWLFWTGIA] | > 1 µM | –
9 | RRAPGKLTCLASYCWLFWTGI[dA] (not fully specified (C-terminus, bridges); printed as RRAPGKLTCLASYCWLFWTGIa; cysteine pairing not given here) [RRAPGKLTCLASYCWLFWTGIa] | > 1 µM | –
10 | RRAPGKLTCLASYC[NMeW]LFWTGIA (cysteine pairing not given here) [RRAPGKLTCLASYC-MeTrp-LFWTGIA] | > 10 µM | –
11 | SKQGRPISPD[dR]RAAGKLTCLASYCWLFWTGIA-NH2 (cysteine pairing not given here) [compound 24] | – | < 0.5 µM
12 | [PEG4′]RRAPGKLTCLASYCWLFWTGIA (disulfide 10-15 (inferred); not fully specified (C-terminus); printed as PEG4-RRAPGKLTCLASYCWLFWTGIA) [PEG4-RRAPGKLTCLASYCWLFWTGIA] | < 0.5 µM | –
13 | CGGSGGRRAPGKLQCLASYCWLFWTGIAC | > 1 µM | –
14 | PRI[dR]TVGPGS[dR]SASGKLTCLASYCWLFWTGIA-NH2 (cysteine pairing not given here) [compound 23] | – | < 0.5 µM
15 | RRAPGKLTCLASYCW[dL]FWTGIA (not fully specified (bridges); printed as RRAPGKLTCLASYCWlFWTGIA; cysteine pairing not given here) [RRAPGKLTCLASYCWlFWTGIA] | > 1 µM | –
16 | CGGSGGRRAPGKLQCLASYCWLFWTGIAGGSGGC | > 1 µM | –
17 | RRAPGKLTCLAS[dY]CWLFWTGIA (not fully specified (bridges); printed as RRAPGKLTCLASyCWLFWTGIA; cysteine pairing not given here) [RRAPGKLTCLASyCWLFWTGIA] | < 0.5 µM | –
18 | RRAPGKLTC[dL]ASYCWLFWTGIA (not fully specified (C-terminus, bridges); printed as RRAPGKLTClASYCWLFWTGIA; cysteine pairing not given here) [RRAPGKLTClASYCWLFWTGIA] | > 1 µM | –
19 | RRAPGKLTCLASYCWLFWTGI[NMeA] (not fully specified (C-terminus, bridges); printed as RRAPGKLTCLASYCWLFWTGI-MeAla; cysteine pairing not given here) [RRAPGKLTCLASYCWLFWTGI-MeAla] | > 1 µM | –
20 | RRAPGKLTCLASYCWLFWT[Sar]IA (not fully specified; printed as RRAPGKLTCLASYCWLFWT-Sar-IA; cysteine pairing not given here) [RRAPGKLTCLASYCWLFWT-Sar-IA] | < 0.5 µM | –
21 | RRAPGKLTCLASY[dC]WLFWTGIA (not fully specified (C-terminus, bridges); printed as RRAPGKLTCLASYcWLFWTGIA; cysteine pairing not given here) [RRAPGKLTCLASYcWLFWTGIA] | > 1 µM | –
22 | RRAPGKLTCLASYCW[NMeL]FWTGIA (not fully specified (bridges); printed as RRAPGKLTCLASYCW-MeLeu-FWTGIA; cysteine pairing not given here) [RRAPGKLTCLASYCW-MeLeu-FWTGIA] | > 10 µM | –
23 | PRIRTVGPGSRSASGKLTCLASYCWLFWTGIA-NH2 (cysteine pairing not given here) [compound 21] | – | < 0.5 µM
24 | RRAPGKLTCLASYCWL[dF]WTGIA (not fully specified (C-terminus, bridges); printed as RRAPGKLTCLASYCWLfWTGIA; cysteine pairing not given here) [RRAPGKLTCLASYCWLfWTGIA] | < 0.5 µM | –
25 | RRAPG[dK]LTCLASYCWLFWTGIA (disulfide 9-14 (inferred)) [RRAPGkLTCLASYCWLFWTGIA] | < 0.5 µM | –
26 | RRA[dP]GKLTCLASYCWLFWTGIA (disulfide 9-14 (inferred)) [RRApGKLTCLASYCWLFWTGIA] | < 0.5 µM | –
27 | RRAPGKLTCLA[dS]YCWLFWTGIA (not fully specified (bridges); printed as RRAPGKLTCLAsYCWLFWTGIA; cysteine pairing not given here) [RRAPGKLTCLAsYCWLFWTGIA] | < 0.5 µM | –
